The target in series [1] is T1, GST-hTERT-HA (C-terminal region, amino acid 946-1132, of hTERT), O14746.
T1 chain: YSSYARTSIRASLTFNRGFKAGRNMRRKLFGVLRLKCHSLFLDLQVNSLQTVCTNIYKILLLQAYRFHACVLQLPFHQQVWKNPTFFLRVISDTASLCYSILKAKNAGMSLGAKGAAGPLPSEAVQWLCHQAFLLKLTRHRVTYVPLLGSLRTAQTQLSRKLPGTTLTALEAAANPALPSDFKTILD

Series [2] addresses T2, Flag-hTERT (N-terminal Flag-tagged full-length hTERT) (human, UniProt O14746 1-1132).
T2 construct: expressed in transfected H1299 cells; also called Flag-tagged hTERT
As to the kind of experiment: co-immunoprecipitation from H1299 cells (anti-Flag IP, anti-V5 immunoblot), with MG132. Here is the method:
Amino acid sequences surrounding the RING finger domain in MKRN1 and mutants used in this study. Cysteines and a histidine in the RING finger domain are shown in red. Mutated residue in MKRN1^H307E is shown in blue. (C) H1299 cells co-transfected with hTERT-HA and MKRN1 -V5 were either untreated or treated for 2 hours with 10 μg/ml ALLnN. Anti-HA immunoprecipitates were analyzed by immunoblotting using an anti-V5 antibody probe. […] (D) H1299 cells co-transfected with Flag-hTERT and MKRN1-V5 were either untreated or treated for 2 hours with 10 μM MG132. Anti-Flag immunoprecipitates were analyzed by immunoblotting using an anti-V5 antibody probe. […] Flag-hTERT was visualized with an anti-Flag antibody probe.
H1299 cells were transiently transfected with the expression vectors indicated in the figure legends using TransFast transfection reagent (Promega, Medison, Wis.) according to the manufacturer's instructions. Cells were lysed with buffer containing 0.5% NP-40, 50 mM Tris-HCl (pH 7.5), 150 mM NaCl, 2 mM phenyl methylsulphonyl fluoride. […] When ubiquitin conjugates of hTERT were detected, immunoprecipitation was performed with lysis buffer containing 0.1% SDS to dissociate its interacting proteins. […]
(A western blot detects proteins with antibodies after separation by electrophoresis.)

Series [3] addresses T2, Flag-hTERT (N-terminal Flag-tagged …). Kind of series: inferred from the dominant negative effect in the in vivo ubiquitination assay in H1299 cells. How it is done:
H1299 cells were transiently transfected with the expression vectors indicated in the figure legends using TransFast transfection reagent (Promega, Medison, Wis.) according to the manufacturer's instructions. Cells were lysed with buffer containing 0.5% NP-40, 50 mM Tris-HCl (pH 7.5), 150 mM NaCl, 2 mM phenyl methylsulphonyl fluoride. After centrifugation at 12,000 rpm for 30 min, the supernatants were immunoprecipitated for 2 hours with anti-Flag (Sigma, St. Louis, Mo.) or anti-HA (Santa Cruz biotechnology, Santa Cruz, Calif.) antibodies and then incubated with Sepharose beads conjugated to Protein G (Amersham Biosciences Inc., Piscataway, N.J.). When ubiquitin conjugates of hTERT were detected, immunoprecipitation was performed with lysis buffer containing 0.1% SDS to dissociate its interacting proteins. Immunoblot analyses were performed using anti-hTERT (Santa Cruz biotechnology, Santa Cruz, Calif.), anti-V5 (Invitrogen, Carlsbad, Calif.), anti-HA, and anti-Flag antibodies.
To investigate whether MKRN1 contributes to the ubiqitination of hTERT in vivo, H1299 cells were cotransfected with Flag-hTERT, HA-ubiquitin, and MKRN1-V5 constructs, and immunoprecipitated with anti-Flag antibody followed by immunoblotting with anti-HA antibody. Ubiquitin conjugates of hTERT were easily detected in the presence of MG132 (FIG. 4B, lane 2 in upper blot). […]

B1: MKRN1-V5 (enzyme, not shown: small tags and cut ends)
chain: MAEAATPGTTATTSGAGAAAATAAAASPTPIPTVTAPSLGAGGGGGGSDGSGGGWTKQVTCRYFMHGVCKEGDNCRYSHDLSDSPYSVVCKYFQRGYCIYGDRCRYEHSKPLKQEEATATELTTKSSLAASSSLSSIVGPLVEMNTGEAESRNSNFATVGAGSEDWVNAIEFVPGQPYCGRTAPSCTEAPLQGSVTKEESEKEQTAVETKKQLCPYAAVGECRYGENCVYLHGDSCDMCGLQLLHPMDAAQRSQHIKSCIEAHEKDMELSFAVQRSKDMVCGICMEVVYEKANPSERRFGILSNCNHTYCLKCIRKWRSAKQFESKIIKSCPECRITSNFVIPSEYWVEEKEEKQKLILKYKEAMSNKACRYFDEGRGSCPFGGNCFYKHAYPDAGREEPQRQKVGTSSRYRAQRRNHFWELIEERENSNPFDNDEEEVVTFELGEMLLMLLAAGGDDELTDSEDEWDLFHDELEDFYDLDL
notes: Full-length MKRN1 expressed in transfected H1299 cells
As for B1, the “in vitro ubiquitination assay (anti-HA immunoblot)” value in series [1] is reported as “the C-terminal domain (residues 946-1132) of hTERT was efficiently ubiquitinated by wild-type MKRN1”. Also, the binding result in series [2] is “binds”.

B2: MKRN1^H307E-V5 (enzyme, not shown: small tags and cut ends)
chain: MAEAATPGTTATTSGAGAAAATAAAASPTPIPTVTAPSLGAGGGGGGSDGSGGGWTKQVTCRYFMHGVCKEGDNCRYSHDLSDSPYSVVCKYFQRGYCIYGDRCRYEHSKPLKQEEATATELTTKSSLAASSSLSSIVGPLVEMNTGEAESRNSNFATVGAGSEDWVNAIEFVPGQPYCGRTAPSCTEAPLQGSVTKEESEKEQTAVETKKQLCPYAAVGECRYGENCVYLHGDSCDMCGLQLLHPMDAAQRSQHIKSCIEAHEKDMELSFAVQRSKDMVCGICMEVVYEKANPSERRFGILSNCNETYCLKCIRKWRSAKQFESKIIKSCPECRITSNFVIPSEYWVEEKEEKQKLILKYKEAMSNKACRYFDEGRGSCPFGGNCFYKHAYPDAGREEPQRQKVGTSSRYRAQRRNHFWELIEERENSNPFDNDEEEVVTFELGEMLLMLLAAGGDDELTDSEDEWDLFHDELEDFYDLDL
notes: Expressed in transfected H1299 cells together with wild-type MKRN1-V5; also called hMKRN1^H307E
With B2, the “in vitro ubiquitination assay (anti-HA immunoblot)” value in series [1] is recorded as “but not by mutants MKRN1^307E or MKRN1^ΔC”. In addition, in series [3], the binding result is on record as “binds”.

For the origin of these results see patent US20070224199A1 (UNIVERSITY OF CENTRAL FLORIDA RESEARCH FOUNDATION, published 2007).
